{"source": "patent US20250215101A1", "about": "“DR5 Agonist and PLK1 Inhibitor or CDK Inhibitor Combination Therapy” (Inhibrx Biosciences, Inc., priority 2022, published 2025)", "assay_in_all_cases": "Cytotoxicity assay, colorectal cancer cell line panel, onvansertib +/- 1 nM INBRX-109", "format_in_all_cases": "cell-based", "key": {"SNU-C5": {"test_system": "SNU-C5", "details": "1 nM INBRX-109 only", "procedure": "(§1) Monolayer cultures of each cell line were harvested for compound screening as detailed below.\n(§2) Also on day 2, test and control articles were added.\n(§3) On day 4, viability measurements were taken. […] Data was graphed in GraphPad Prism 9.\n(§4) The results for a panel of colorectal cancer cell lines are shown in Table 3 and FIGS. 4-6, and the results for a panel of pancreatic cell lines are shown in Table 4 and FIGS. 7 and 8."}, "NCI-H747": {"test_system": "NCI-H747", "details": "NCI-H747; 1 nM INBRX-109 only", "procedure": "as §1, §2, §3, §4"}, "NCI-H716": {"test_system": "NCI-H716", "details": "NCI-H716; 1 nM INBRX-109 only", "procedure": "as §1, §2, §3, §4"}, "SK-CO-1": {"test_system": "SK-CO-1", "details": "SK-CO-1; 1 nM INBRX-109 only", "procedure": "as §1, §2, §3, §4"}, "SW-948": {"test_system": "SW-948", "details": "SW-948; 1 nM INBRX-109 only", "procedure": "as §1, §2, §3, §4"}, "SW-1463": {"test_system": "SW-1463", "details": "SW-1463; 1 nM INBRX-109 only", "procedure": "as §1, §2, §3, §4"}, "SW-837": {"test_system": "SW-837", "details": "SW-837; 1 nM INBRX-109 only", "procedure": "as §1, §2, §3, §4"}, "HT-29": {"test_system": "HT-29", "details": "HT-29; 1 nM INBRX-109 only", "procedure": "as §1, §2, §3, §4"}, "SW620": {"test_system": "SW620", "details": "SW620; 1 nM INBRX-109 only", "procedure": "as §1, §2, §3, §4"}, "LS174T": {"test_system": "LS174T", "details": "1 nM INBRX-109 only", "procedure": "as §1, §2, §3, §4"}, "T84": {"test_system": "T84", "details": "T84; 1 nM INBRX-109 only", "procedure": "as §1, §2, §3, §4"}, "SNU-C2A": {"test_system": "SNU-C2A", "details": "1 nM INBRX-109 only", "procedure": "as §1, §2, §3, §4"}, "DLD-1": {"test_system": "DLD-1", "details": "DLD-1; 1 nM INBRX-109 only", "procedure": "as §1, §2, §3, §4"}, "SW-1116": {"test_system": "SW-1116", "details": "SW-1116; 1 nM INBRX-109 only", "procedure": "as §1, §2, §3, §4"}, "SW-480": {"test_system": "SW-480", "details": "SW-480; 1 nM INBRX-109 only", "procedure": "as §1, §2, §3, §4"}, "COLO320DM": {"test_system": "COLO320DM", "details": "1 nM INBRX-109 only", "procedure": "as §1, §2, §3, §4"}, "Hutu 80": {"test_system": "Hutu 80", "details": "Hutu 80; 1 nM INBRX-109 only", "procedure": "as §1, §2, §3, §4"}, "LS 513": {"test_system": "LS 513", "details": "LS 513; 1 nM INBRX-109 only", "procedure": "as §1, §2, §3, §4"}, "HCT-8": {"test_system": "HCT-8", "details": "HCT-8; 1 nM INBRX-109 only", "procedure": "as §1, §2, §3, §4"}, "LoVo": {"test_system": "LoVo", "details": "1 nM INBRX-109 only", "procedure": "as §1, §2, §3, §4"}, "LS 1034": {"test_system": "LS 1034", "details": "LS 1034; 1 nM INBRX-109 only", "procedure": "as §1, §2, §3, §4"}, "LS 180": {"test_system": "LS 180", "details": "LS 180; 1 nM INBRX-109 only", "procedure": "as §1, §2, §3, §4"}, "HT-55": {"test_system": "HT-55", "details": "HT-55; 1 nM INBRX-109 only", "procedure": "as §1, §2, §3, §4"}, "RKO": {"test_system": "RKO", "details": "1 nM INBRX-109 only", "procedure": "as §1, §2, §3, §4"}, "SW-403": {"test_system": "SW-403", "details": "SW-403; 1 nM INBRX-109 only", "procedure": "as §1, §2, §3, §4"}, "SW-48": {"test_system": "SW-48", "details": "SW-48; 1 nM INBRX-109 only", "procedure": "as §1, §2, §3, §4"}, "HCT-15": {"test_system": "HCT-15", "details": "HCT-15; 1 nM INBRX-109 only", "procedure": "as §1, §2, §3, §4"}, "SNU-81": {"test_system": "SNU-81", "details": "1 nM INBRX-109 only", "procedure": "as §1, §2, §3, §4"}, "HCT 116": {"test_system": "HCT 116", "details": "HCT 116; 1 nM INBRX-109 only", "procedure": "as §1, §2, §3, §4"}, "LS 123": {"test_system": "LS 123", "details": "LS 123; 1 nM INBRX-109 only", "procedure": "as §1, §2, §3, §4"}}, "data": [{"molecule": "INBRX-109: DR5-binding polypeptide consisting of SEQ ID NO: 7 (two VHH domains and an Fc region); DR5 agonist (protein, INBRX-109, DR5 agonist) EVQLLESGGGEVQPGGSLRLSCAASGLTFPNYGMGWFRQAPGKEREFVSAIYWSGGTVYYAESVKGRFTISRDNAKNTLYLQMSSLRAEDTAVYYCAVTIRGAATQTWKYDYWGQGTLVTVKPGGSGGSEVQLLESGGGEVQPGGSLRLSCAASGLTFPNYGMGWFRQAPGKEREFVSAIYWSGGTVYYAESVKGRFTISRDNAKNTLYLQMSSLRAEDTAVYYCAVTIRGAATQTWKYDYWGQGTLVTVKPGGGGDKTHTCPPCPAPGGPSVFLFPPKPKDTLMISRTPEVTCVVVDVSHEDPEVKFNWYVDGVEVHNAKTKPREEQYNSTYRVVSVLTVLHQDWLNGKEYKCKVSNKALPAPIEKTISKAKGQPREPQVYTLPPSRDELTKNQVSLTCLVKGFYPSDIAVEWESNGQPENNYKTTPPVLDSDGSFFLYSKLTVDKSRWQQGNVFSCSVMHEALHNHYTQKSLSLSPGK", "values": [{"measurement": "Max Cytotox at 1 nM", "setting": "SNU-C5", "result": 48.6, "unit": "%"}, {"measurement": "Max Cytotox at 1 nM", "setting": "NCI-H747", "result": 13.4, "unit": "%"}, {"measurement": "Max Cytotox at 1 nM", "setting": "NCI-H716", "result": 9.2, "unit": "%"}, {"measurement": "Max Cytotox at 1 nM", "setting": "SK-CO-1", "result": 92.2, "unit": "%"}, {"measurement": "Max Cytotox at 1 nM", "setting": "SW-948", "result": 98.5, "unit": "%"}, {"measurement": "Max Cytotox at 1 nM", "setting": "SW-1463", "result": 28.5, "unit": "%"}, {"measurement": "Max Cytotox at 1 nM", "setting": "SW-837", "result": 7.1, "unit": "%"}, {"measurement": "Max Cytotox at 1 nM", "setting": "HT-29", "result": 19.9, "unit": "%"}, {"measurement": "Max Cytotox at 1 nM", "setting": "SW620", "result": 19.4, "unit": "%"}, {"measurement": "Max Cytotox at 1 nM", "setting": "LS174T", "result": 41.2, "unit": "%"}, {"measurement": "Max Cytotox at 1 nM", "setting": "T84", "result": 9.1, "unit": "%"}, {"measurement": "Max Cytotox at 1 nM", "setting": "SNU-C2A", "result": 41.4, "unit": "%"}, {"measurement": "Max Cytotox at 1 nM", "setting": "DLD-1", "result": 41.9, "unit": "%"}, {"measurement": "Max Cytotox at 1 nM", "setting": "SW-1116", "result": 15.3, "unit": "%"}, {"measurement": "Max Cytotox at 1 nM", "setting": "SW-480", "result": 19.7, "unit": "%"}, {"measurement": "Max Cytotox at 1 nM", "setting": "COLO320DM", "result": 4.7, "unit": "%"}, {"measurement": "Max Cytotox at 1 nM", "setting": "Hutu 80", "result": 4.0, "unit": "%"}, {"measurement": "Max Cytotox at 1 nM", "setting": "LS 513", "result": 92.3, "unit": "%"}, {"measurement": "Max Cytotox at 1 nM", "setting": "HCT-8", "result": 6.7, "unit": "%"}, {"measurement": "Max Cytotox at 1 nM", "setting": "LoVo", "result": 16.2, "unit": "%"}, {"measurement": "Max Cytotox at 1 nM", "setting": "LS 1034", "result": 56.9, "unit": "%"}, {"measurement": "Max Cytotox at 1 nM", "setting": "LS 180", "result": 27.2, "unit": "%"}, {"measurement": "Max Cytotox at 1 nM", "setting": "HT-55", "result": 48.4, "unit": "%"}, {"measurement": "Max Cytotox at 1 nM", "setting": "RKO", "result": 3.6, "unit": "%"}, {"measurement": "Max Cytotox at 1 nM", "setting": "SW-403", "result": 15.7, "unit": "%"}, {"measurement": "Max Cytotox at 1 nM", "setting": "SW-48", "result": 93.9, "unit": "%"}, {"measurement": "Max Cytotox at 1 nM", "setting": "HCT-15", "result": 49.6, "unit": "%"}, {"measurement": "Max Cytotox at 1 nM", "setting": "SNU-81", "result": 82.1, "unit": "%"}, {"measurement": "Max Cytotox at 1 nM", "setting": "HCT 116", "result": 54.4, "unit": "%"}, {"measurement": "Max Cytotox at 1 nM", "setting": "LS 123", "result": 3.1, "unit": "%"}]}]}
